The record followed here is EP0665886B1 (COLD SPRING HARBOR LABORATORY, dated 2003).

The target of this assay is T1, human cyclin D1 (human, UniProt P24385 1-295).
T1 construct: Endogenous 35 kDa protein in co-immunoprecipitations; also called p35^cyclin D1; p35
Nature of the assay: anti-cyclin D1 immunoprecipitation.

Where only a bound is given, the exact number is not on record here.

T1 sequence (P24385 whole entry): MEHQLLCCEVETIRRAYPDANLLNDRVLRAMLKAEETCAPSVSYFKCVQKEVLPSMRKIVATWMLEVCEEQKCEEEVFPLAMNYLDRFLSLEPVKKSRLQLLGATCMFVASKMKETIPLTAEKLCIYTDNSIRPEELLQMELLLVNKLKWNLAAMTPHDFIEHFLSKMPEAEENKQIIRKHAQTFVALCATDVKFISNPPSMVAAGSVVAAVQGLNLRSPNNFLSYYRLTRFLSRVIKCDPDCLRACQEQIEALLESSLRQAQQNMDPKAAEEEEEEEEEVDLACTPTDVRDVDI

In the case of “p21 (polypeptide of 21 kDa apparent molecular weight)”, the share of cyclin D1-associated protein lost in RIPA buffer (0.1% SDS) against NP40 (0.5%) buffer is > 90%.

B1: human CDK4 (enzyme, UniProt P11802 1-303, looked up)
chain: MATSRYEPVAEIGVGAYGTVYKARDPHSGHFVALKSVRVPNGGGGGGGLPISTVREVALLRRLEAFEHPNVVRLMDVCATSRTDREIKVTLVFEHVDQDLRTYLDKAPPPGLPAETIKDLMRQFLRGLDFLHANCIVHRDLKPENILVTSGGTVKLADFGLARIYSYQMALTPVVVTLWYRAPEVLLQSTYATPVDMWSVGCIFAEMFRRKPLFCGNSEADQLGKIFDLIGLPPEDDWPRDVSLPRGAFPPRGPRPVQSVVPEMEESGAQLLLEMLTFNPHKRISAFRALQHSYLHKDEGNPE
notes: also called PSK-J3; p33^CDK4
In the case of B1, the “share of cyclin D1-associated protein lost in RIPA buffer (0.1% SDS) against NP40 (0.5%) buffer” value is > 90%.
